Experimental data published in the nanobody polyreactivity screen of Harvey et al. (2022).

Assay: yeast display, Sf9 membrane polyspecificity reagent, FACS + sequencing; frameworks hold sequencing errors
Outline: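 Synthetic nanobody libraries on Saccharomyces cerevisiae BJ5465 were galactose-induced for 36–48 hours, stained 1 hour at 4 °C with 10% biotinylated, detergent-solubilized Sf9 membrane reagent and enriched on streptavidin microbeads. FACS then separated cells into low and high (top ~1%) gates by anti-HA (expression) and streptavidin (reagent binding) fluorescence. Genes were colony-PCR amplified, MiSeq 2 × 250 sequenced and CDR-length filtered. A clone's polyreactivity label is that of its gate of origin.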

| Sequence | polyreactivity (PSR sort gate) |
| --- | --- |
| QVQLVESGGGLVQAGGSLRLSSAASGRTFRGNAMGWYSQAPGKERELVAAIRWNGGSTYYADSVKGRFTISRDNAKNTVYLQMNSLKPEDTAVYYCAVSYWYSRYDYWGQGTQVTVSS | high polyreactivity |
| QVQLVESGGGLVQAGGSLRLSCAASGYTFSWYAMGWYRQAPGKERELVAGIDTSGGSTYYADSVKGRFTISRDNAKNTVYLQMNSLKPEDTAVYYCAAGLLWYSWGFWYYEYGYWGQGTQVTVSS | low polyreactivity |
| QVQLVETGGGLVQAGGSLRLSCAASGRIFDIYAMGWYRQAPGKERELVAAIDESGGSTYYADSVKGRFTISRDNAKNTVYLQMNSLKPEDTAVYYCATDDTWTISYGWYWFTYEYWGQGTQVTVSS | low polyreactivity |
| QVQLVESGGGLVQAGGSLRLSCAASGSIFFGYAMGWYRQAPGKERELVATITSSGGITYYADSVKGRFTISRDNAKNTVYLQMNSLKPEDTAVYYCATYYYYTYDYWGQGTQVTVSS | low polyreactivity |
| QVQLVESGGGLVQAGGSLRLSCAASGIIFGYYAMGWYRQAPGKERELVAAINQDGSSTYYADSVKGRFTISRDNAKNTVYLQMNSLKPEDTAVYYCNARGVPRQDARMGYWGQGTQVTVSS | low polyreactivity |
| QVQLVESGGGLVQAGGSLRLSCAASGSTIKGYDMGWYRQAPGKERELVAAIDSGGSTYYADSVKGRFTISRDNAKNTVYLQMNSLKPEDTAVFYCAAERVSLYWVIFGYWGQGTQVTVSS | low polyreactivity |
| QVQLVESGGGLVQAGGSLRLSCAASGRIFNIYAMGWYRQAPGKERELVAAISVSGTRTYYADSVKGRFTISRDNAKNTVYLQMNSLKPEDTAVYYCAADSYGGDWTEHMYYWGQGTQVTVSS | low polyreactivity |
| QVQLVESGGGLVQAGGSLRLSCAASGRIFFANAMGWYRQAPGKERELVATITSGESTNYADSVKGRFTISRDNAKNTVYFEMNSLKPEDTAVYYCAADYYWYSPGAYSYAGYDYWGQGTQVTVSS | low polyreactivity |
| QVQLVESGGGLDQAGGSLRLSCAASGITLTANAMGWYRQSPGTERELVAAISRGGSTYYADSVKGRFTISRDNAKNTVYLQMNSVKPEDTQVFYCNKAGGYWYAKRDYDYWGQGTQVTVSS | high polyreactivity |
| QVQLVESGGGLVQAGGSLRLSCAASGGIFRYYAMGLYRQAPGKERELVASIRRSGGRTYYADSVKGRFTISRDNAKYTVYFQMNSLKPEDTAVYYCNADRLIVTMNSWGQGTQVTVSS | low polyreactivity |
| QVQLVESGRGLVQAGGSLRLSCAASGSIFRGNAMGWYRQAPGKERELVAAMTKRGGSTYYADSGKGRFTISRDNAKNTDKFQMNSLKPEDTAVYYFAAKPSYRYYKSYDYWGQGTQVTVSS | high polyreactivity |
| QGQLVESGGGLVQAGGSLRLSCAASGISFSFYAMGWYRQAPGKERELVADITLSGGRTYYADSVKGRFTISRDNAKNTVYLQMNSLKPEDTAVYYCNADTYERVDYWGQGTQVTVSS | high polyreactivity |
| QVQLVESGGGLVQAGGSLRLSCAASGSIFVSYAMGWYRQAPGNDRELVAAISGGGVSTYYADSVKGRFSISRDNAKNTVYLQMNSLKPEDTAVYYCATPYVQTGSGYTGDYWGQGTQVTVSS | high polyreactivity |
| QVQLVDSGGGLVQAGGSLRLSCAASGSIFLAYAMGWYRQAPGKEREFVAAISFSDGSTYYADSVKGRFTISRDNAKNTVYLQMNSLKPEDTAVYYCNKGASPDDYDFWGQGTQVTVSS | low polyreactivity |
| QVQLVESGGGLVQAGGSLRLSCAASGSIFGFNAMGWYSQAPGKEREMVAAINNGGSTNYADSVKGRFTISRDNAKNTVYLQMNSLKPEDTAVYYCAAVRFRPRRNEYWGQGTQVTVSS | high polyreactivity |
| QVQHVESGGGLVQAGGSLRLSCAASGFTFPSYAMGWYRQAPGKERELVAGISRGGTRTYYADSVKGRFTISRDNAKNTVYLQMYSLKPEDTAVYYCAATHGLRIRFPGDYWGQGTQVTVSS | high polyreactivity |
| QVQLVESGGGLVQAGGSLRLSCAASGSTFLYYAMGWYRPAPGKERELVAAIRWTAGSTYYADSVKGRFTISRDNAKNSVYLQMNSLKPEDTAVYYCAAVGYVRNYYTYEHWGQGTQVTVSS | low polyreactivity |
| QVQLVESGGGLVQAGGSLRLSCAASGRTFDYYAMGWYRQAPGKERELVAAIRLISGNRYYADSVKGRFTISRDNAKNTVYLQMNSLKPEDTAVYYCAARSDGVPSLYGGMDYWRQGTQVTVSS | low polyreactivity |
| QVQLVESGGGLVQAGGSLRLSCAASGSIFGSYAMGWYRPAPGKERELVAAITRAGSTNYADSVKGRFTISRDNAKNTVYLQMNSLKPEDTAVYYCAVRPGFGRSLWYGYWGQGTQVTVSS | low polyreactivity |
| QVQLVESGGGLVQAGGSLRLSCAASGRIFRGYAMGWYRQAPGKERELVATISAIGGSTYADSVKGRFTISRHNAKNTVYLQMNSLKPEDTAVYYCNVRKVYRYQYRFEYWGQGTQVTVSS | high polyreactivity |
| QVQLVESGGGLVQAGGSLRLSCAASGSTFSLNAIGWFRQAPGKERQLVAAITGRGTRTYYADSVKGRFTLSRDNAKNTVYLQMNSLKPEDTAVYYCAKDYPRGSPYGYNYWGQGTQVTVSS | high polyreactivity |
| QVQLVESGGGLVQAGGSLRLSCAASGRTFPFNAMGWYRQAPGKERELVAAIRWSGGSTYYADSVKGRFTISRDNAKNTVYLQMNSLKPEDTAVYYCAAVYPKIRSYRYGYWGQGTQVTVSS | high polyreactivity |

| Sequence | polyreactivity (PSR sort gate) |
| --- | --- |
| QVQLVESGGGLVQAGGSLRLSCAASGTFSPYAIGWYRQAPGKERELVAVITSNTGRTYADSVKGRFTISRDNAKNTVYLQMNSLKPEDTAVYYCAARSTYRHWYRTGSRFDYWGQGTQVTVSS | low polyreactivity |
| QVQLVESGGGLVQAGGSLRLSCAASGRIFPGNTMGWYRQAPGKERELVAAITRGGSTSYADSVKGRFTISRDNAKNTVYLQMNSLKPEDTAVYYCATRTHGEGTRRDSWGQGTQVTVSS | low polyreactivity |
| QVQLVESGGGLVQAGGSLRLSCAASGRIFRRYAMGWYRQAPGKERELVAAINGRGTTTYYADSVKGRFTISRDNAKNTVYLQMNSLKPEDTAVYYCAAENTIRYDREYDYWGQGNQVTVSS | high polyreactivity |
| QVQLVESGGGLVQAGGSLRLSCAASGFTFSYYAMGWYRQSPGKERELVASISRSGNTYYADSVKGRFTISRDNAKNTVYLQMKSLKPEDTAVYYCAAKRKSYYSYNFDYWGQGTQVTVSS | high polyreactivity |
| QVQLVESGGGLVQAGGSLRLRCAASGFTFAPNAMGWYRQAPGKERELVAAITWSGGSTYYADSVKGRFTISRDNAKNTVYVQMNSLKPEDTAVYYCNAVSRSTVTGQHDFWGQGTQVTVSS | high polyreactivity |
| QVQLVESGGGLVQAGGGLRLSCAASGRIFSPYAMGWDRQSPGKEMELVAAIRRSGVDTYYADSVKGRFTISRDNAKNTVYLQINSLKPEDTAVYYCAADPYWFFPHYDSWGQGTQVTVSS | low polyreactivity |
| QVQLVESGGGLVQAGGSLRLSCDASGRIFYANAIGWYRQAPGKEREFVAAITRSGGSTYYADSVKGRFTISRDNAKNTVYLQMNSLKPEETAVYYCAAQGGDVYGWRYYYWGQGTQVTVSS | low polyreactivity |
| QVQLVESGGGLVQAGGSLRLSCAASGGTFARNALGWYRQAPGKERELVAAIRGGVSTNYADSVKGRFTISRDNAKNTVYLQMNSLKPEDTAVYYCNASPPTLEGYWGQGTQVTVSS | low polyreactivity |
| QVQLVESGGGLVQAGGSLRLSCAASGSIYSTYAMGWYRQAPGKERELVAAITSDGTYADSVKGRFTISRDNARNTVYLQMNSLKPEDTAVYYCAAYYPYTRHGDYWGQGTQVTVSS | low polyreactivity |
| QVQLVESGGGLVQAGGSLRLSCAASGSTCSVNAMGWYRQAPGKERELVAAITYSGGSTYYADSVKGRFTISRDNAKNTVYLQMNSLKPEDTAVYYCNRDTRYYWKRYGYWGQGTQVTVSS | high polyreactivity |
| QVQLVESGGGLVQAGGSLRLSCAASGIILPYYVMGWYRQAPGKERELVAAISSGGRTYYADSVKGRFTISRDNAKNTVYLQMNSLKPEDTAVYYCNAYFTGKWYDYWGQGTQVTVSS | high polyreactivity |
| QVQLVESGGCLVQAGGSLRLSCAASGSIFIYYAMGWYRQAPGKERELVATISVRGGSTYYADSVKGRFTISRDNAKNTVYLQMNSLKPEDTAVYYCNAVTSGTTKSAYDYWGQGTQVTVSS | high polyreactivity |
| QVQLVESGGGLVQAGGSLRLSCAASGSTFPTYAMGRDRTAPGKEREMVAAIDWSDGSITYYADSVKGRFTISRDNAKNTVYLQMNSLKPEDTAVYYCAKDNSQYGWGYDYWGQGTQVTVSS | low polyreactivity |
| QVQLVESGGGLVQAGGSLRVSCAASGRTFARYALAWYRQAPGKERELVAAISRGGTTNYADSVKGRFTISRDNAKNTVYLQMNSLKPEDTAVDYCNRDFHLSHLSSARLDYWGQGTQVTVSS | low polyreactivity |
| QVQLVESGGGLVQTGGSLRLSCAASGIIFYYYAMGWYRQAPGKERELVAAISWSGDGTYYADSVKGRFTISRDNAKNTVYLQMNSLKPEDTAVYYCAALNDGFTAYDYLDEYTDYGYWGQGTQVTVSS | low polyreactivity |
| QVQLEESGGGLVQAGGSLRLICAASGSTFIYNAMGWYRQAPGKERELVAAISARTGNTYYADSVKGRFTISRDNAKNTVYLQMNSLKPEDTAVYYCARRGFPRGGGPSRYYWYDYWGQGTQVTVSS | high polyreactivity |
| QVQLVESGGGLVQAGGSLRLSCAASGSTFYTYAMGWYRQAPGKERELVAAISADGGRTYYADSVKGRFTISRDNAKNTVYLQMNSLKPEDTAVYYCAAEERRWSSYRYYYWGQGTQVTVSS | high polyreactivity |
| QVQLEESGGGLVQAGGSLRLSCAASGNTFYKYTMGWYRQAPGKERELLAAITWSGGSTYYADSVKGRFTISRDNAKNTVYLQMNSLKPEDTAVYYCNADDYQYKTWYHLDYWGQGTQVTVSS | low polyreactivity |
| QVQLVESGGGLVQAGGSLRLSCASSARIFFWYTMGWYSQAPGKERELVAAITSSGNTNYADSVKGRFTISRDNAKNTVYLQMNSLKPEDTAVYYCATGSYSYYSLFDYWGQGTQVTVSS | low polyreactivity |
| QVQLVESGGGLVQAGGSLRLSCAASGSIFYGNAMGWYRQAPGKEREFVAAINWSGARTYYADSVKGRFTISRDNAKNTVSLQMNSLKPEDTAVYYCAAGRPFSFRYEFDYWGQGTQVTVSS | high polyreactivity |
| QVQLVESGGGLVQAGGSLRLSCAASGRTLRYYAMGWYRQAPGKERELVAAISRRGGRTYYADSVKGRFTISRDNAKNTVYLQMNSLKPEDTAVYYCNARYDVYRWRYDYDYWGQGTQVTVSS | high polyreactivity |
